From the DeepSol protein solubility set

Assay: soluble on expression in E. coli; label from the status in PepcDB or PDB records

Sequence | soluble on expression in E. coli
MSLLSKFKRNKHQQHLAQLPKISQSVDDVDFFYTPATFRETLLEKIASATQRICIVALYLEQDDGGKGILDALYAAKRQRPELDVRVLVDWHRAQRGRIGAAASNTNADWYCRLAQENPGIDVPVYGVPINTREALGVLHFKGFIIDDSVLYSGASLNDVYLHQHDKYRYDRYQLIRNRQMADIMFDWVTQNLMNGRGVNRLDNTQRPKSPEIKNDIRLYRQELRDASYHFQGDANDEQLSVTPLVGLGKSSLLNKTIFHLMPCAEHKLTICTPYFNLPAVLVRNIIQLLRDGKKVEIIVGDKTANDFYIPEDEPFKIIGALPYLYEINLRRFLSRLQYYVNTDQLVVRLWKDDDNTYHLKGMWVDDKWMLLTGNNLNPRAWRLDLENAILIHDPKQELAPQREKELELIRTHTTIVKHYRDLQSIADYPIKVRKLIRRLRRIRIDRLISRILEGHHHHHH | soluble
MTLTKAELADILVDKVSNVTKNDAKEIVELFFEEIRSTLASGEEIKISGFGNFQLRDKPQRPGRNPKTGEEVPITARRVVTFHASQKLKSMVEHYYDKQR | not soluble
MGSDKIHHHHHHMPKRPVRKPGVFARLEDLYTRMETAYNATAAAAGLTCTGCDDNCCRTHFRHHTRIEWAYLWKGMLSLSPERREAYLERAKDVVAQCDAALAAGVVPRVMCPLNDEGRCGLYKYRLMICRMHGTRNILRLPDGRTQVFRGCHRFDNCTAQFADADRPSLDRTPLYTELAKLEMEHLGPTAARQQRVDLTLAEMLVYGPPKP | not soluble
MILSSYNTIQSVFCCCCCCSVQKRQMRTQISLSTDEELPEKYTQHRRPWLSQLSNKKQSNTGRVQPSKRKPLPPLPPSEVAEEKIQVKALYDFLPREPCNLALRRAEEYLILEKYNPHWWKARDRLGNEGLIPSNYVTENKITNLEIYEWYHRNITRNQAEHLLRQESKEGAFIVRDSRHLGSYTISVFMGARRSTEAAIKHYQIKKNDSGQWYVAERHAFQSIPELIWYHQHNAAGLMTRLRYPVGLMGSCLPATAGFSYGKVCTHAEVK | soluble
MGSDKIHHHHHHMTQRHSRILLFVVNTPEFFLSHRLPIAIAAHKAGYEVHVASAEGDGVQAVLAHGFVHHSIGFARSGQNPWVEFRTLVSLVQVMRRVQPDIVHLITIKPVLYGGIAARLVRVPAVVSAVSGLGTVFLAHTWATRLRRWFIIELYKAAFKQRSLAVIFQNPDDRDTLISSGAIQSGDTRMIRGSGVSLDDYPCVTEPEGKPVAVMAARLLRNKGVVEFVGAARILRDRGVDVDMRLIGSPDLDNPASVTELELERWKSESVVTLMGYRKDIAHQYASSNIVCLPSYYGEGLPKSLVEAAACGRAVVTTDHPGCRDAILPDETGVLIPIKDSVALANAIQRLIENPDLRRKMGKAGRELAEEAFSIDQIVEQHLKIYDEVMATVRNGSLRQ | not soluble
MTRDEMRYMLETEGVLENEELEMLQGVFSLDTKVAREVMVPRTDAFMVDIQDDVQENINLILGENYSRIPVYSEDKDKIVGILHTKTLLKAARNLGFENIELGAIIQEPLFVPETIFIDDLLYELKRTQNQMAILLDEYGGVVGLATLEDLLEEIVGEID | not soluble
MKPMTQEPSTLYAKLLGETASITWTELQPFFAKGALLWVELPLDLIEVAEAVAENDAARVSAWLADGQVGKVSETKALELVETDPQLWAVVVAPWVLIQNRANV | not soluble
MSLNIAKIVREAREQSRLTTLDFATGIFDEFIQLHGDRSFRDDGAVVGGIGWLGDQAVTVVGIQKGKSLQDNLKRNFGQPHPEGYRKALRLMKQAEKFGRPVVTFINTAGAYPGVGAEERGQGEAIARNLMEMSDLKVPIIAIIIGEGGSGGALALAVADRVWMLENSIYAILSPEGFASILWKDGTRAMEAAELMKITSHELLEMDVVDKVISEVGLSSKELIKSVKKELQTELARLSQKPLEELLEERYQRFRKYEGHHHHHH | soluble
MKNLVGRFMRYVTFDTQSKPKNHHCPSSTGQKVFAQALYEELLELGLSDVSLDDHGYVMAKLPSNVNYPVPAIGFIAHMDTSPDACGKHVKPQIVEDYQGGDIALGKGDEVLSPIQYPDLHLLHGYNLITTDGTTLLGADNKAGIAEIITAMEILLADPSIPHGDISIAFTPDEEIGRGANHFDVAKFAAQWAYTIDGGPIGELEYENFNAATATVVCHGVNVHPGTAKDKMVNAMHIAAQFILMMPENETPQHTEGYQGFYHLSGATMSVAKSELKYILRDFEAIGLQARQALMQAKVAELNQQLKKGRVEVSFEQSYSNMKEKVEPHPHIIELAKQAMVACDVEPKIKPIRGGTDGARLSFMGLPCPNIFTGGYNFHGIHEFITIEGMEAAVQVIVKLAEKTALHYRQ | not soluble
HENPEGIIRIYASTTPGEHILPSIIKEYKSSYKNVDFEITITDSERCFKALDEGLADIAAVGYLKNKNYEYTIIGKDRLVLIVPPNHPLAEKGTAKLEDILKEDYIDREEGSGTREAFIKALNDKGYSIMDLNVVMRLGSHSAVI | not soluble
NVAYPLGEGLLSFAESLESQKIHFTTEVITSRIEPANRYVAEKLRITPGQDILYLERLRSIGDEKAMLIENRINIELCPGIVEIDFNQHNLFPTIESLSKRKIRYSESRYAARLIGNERGHFLDISEDAPVLHLEQLVFFSRELPVEFGNVWLKGNKYYLGTVLQRRELS | soluble
MSLDEIVGIGFKRADAIARNMGVHPHSKYRIHSGIKYMLNTFQGEGHTYAPGVKLIQRAEELLRVEEGQVEGAIQELALNQEIQLERIDDEIIVYSMPYYYAESNVCKKLISLAQVELDPIEMDIDEELQKIEQAEEMTLAKQQKEAIKEAIENGISVITGGPGTGKTTTINSLIKVFEKLELKMLLAAPTGRASKRMTEATGKESKTIHRLLELGFGDDREGMLFQRNEDNPLDCHVIIIDEVSMVDIILMNSLMKSIARGTRVVLVGDVDQLPSVGAGNVLRDIIDSKVVKTIRLTEIFRQAQESMIVVNAHRINQGLYPQLNEKQKDFYFMKRNAKEDVLATVVELVRDRLPKHYQFDALRDIQVLTPMKKGETGTLNLNKELQAALNPPNVSKAEKDLKEKIFREGDKVMQIKNNYTLKWRCLDPMAEEQKGEGVFNGDIGYVQSIDTEAEELVILFDDQKQVNYSFTQLDELELAYSVTIHKSQGSEFPVVVIPITWGPPMLLTRNLLYTAVTRARSLVVLVGVESYLKKMVDNNKIIERYSGLGRRLGKYFEEGHHHHHH | not soluble
GMLTDMQRDSASSSTVTTEQIVYGALPLTTINEPECRAIAITSINGSATLSGVSGPMGDQTDADLLIQLRGWADAIVVGAETARKENYGPVVLPHGIKNQRQKLGRCGLPKLTLLSKSLYFDFSSELFSPDLPSELSPLVITQQPANNSEQWDQRLQKLIDVGVEVIVAPTSTNPLKIAFDALHARRLKKISIEGGPSVYRQALSLGIVDRLHLTIAPNIICPVESPLFGKISDDSFTTRLVLEMLSSSPNGLIFSRYKVIRDTLGNPTQ | soluble
MGSDKIHHHHHHMQEIHTIMKHMDALIADPSAAAFKATLPFAELLEKLHNKKALFDAALAKSAERADAGRIIGKTSHIDALAYLLDISKSEAFRRTKRAEEHYGNPSPEPSSEELAKETPEEKLAREEKEKQDLAEQAEANRIAREHGISAEKQDTIRYELEKLNDNTSLSRASLRKLAMQEATSRTPEDLRNWTRNKVIRINPTAKDPLAAVKKRSLSIGRQDHDGGAKASLYLDAKGLALLKSLMSKAKPGHLLEDSLAEDKRTKPQRQYDAFADILHRAHSDLLPARSGVGTILVSLSAKDVTNLKASGPDHRYPTSTGIKLTPLEILRLGAAKYDFVTVLDSESGRPLHLARTQRTASLYQRLALFASELVCTREGCDSPFEDNEIHHIRSWLDGGPTDIENITNICPHDHGNNNDQRDGKDNMGHMNIDPTTGRVGYQPADRRKPMRFNNTAAAAESGGAQART | not soluble
MDDVLRRNPLFAALDDEQSAELRASMSEVTLARGDTLFHEGDPGDRLYVVTEGKVKLHRTSPDGRENMLAVVGPSELIGELSLFDPGPRTATGTALTEVKLLALGHGDLQPWLNVRPEVATALLRAVARRLRKTNDAMSDLVFSD | soluble
MGSDKIHHHHHHMNFGYWYYREYFNTIKLNSEGIVTNFSTFNKGKNDKLIKGATLPPCDKENDIKDVTGFELKTCYPGLLCGVGYHHEINKPADEKGKKVEGDKEDDAPEVYNLGMYFDYTSGLPVIPGSSIKGMLRSAIEEWDFLADYELNNGVTREEIIEKVFVGKEYSIYDRDIFLDAIPIRVDNTLFGEDYITHHPNPLQNPNPVRFLRVEPGVTYQFRFILKDHGEKLTVDFRTKLFKAIICTFGLGAKTNVGYGQFVEP | not soluble
MKNKLLFMMLTILGAPGIAAAAGYDLANSEYNFAVNELSKSSFNQAAIIGQAGTNNSAQLRQGGSKLLAVVAQEGSSNRAKIDQTGDYNLAYIDQAGSANDASISQGAYGNTAMIIQKGSGNKANITQYGTQKTAIVVQRQSQMAIRVTQR | not soluble
MNIDTRIKFRHLVCFLEVARQGSLARASDALAISQPALSKSLKELETLLATTLFVRSKSGAALTDAGVAFMRFAGPSVQALRDGVSSLRSGEHETVTARLGVLSTAESLLVPEVVKRLHTRHPALIVSVMTGPSAYLLSQLRVGELDLVVGRMTDSPQIQGLTFEHLYHESMTLVVRNDHPLLAAPLKRESLEQFPLVLPLAGTTIRKFADSLFVQCGIQMPRQRLETLSLTLSRRYVQCSNAIWIAPLDAVLLELKGGTLVELDMGIREPGGSVGLCSNPALPLTRAAQWCVDELRTVGAAYREGQYA | not soluble
MAHHHHHHMMNKNDITIDENNKYIFRASSFYNKDGLLIKSYSWEVREPLGIIILVHGLASHIRFGFLKQNAKIVNNDHAVLIDGDNYYIYEGSWIEKLNKNGYSVYGLDLQGHGESDGYQNLKLHIKDYDDYIYDLIDFIKSVYESIISKKEKKQMYIRDNDIIETVPIYLVGYSMGANIILRALQLLNKSNDNLISKLNIKAFISLAGMISIKNIGSIDSLKYKYLFLPIIKMLSYVCPTYRLRKKHSGFKRFPYINDLMNFDKLRYKKGMTNKLAYEVIKSVYILKKYINDIPQNVPILFIHSRHDSVCAYEEVLSFYNNLYNTNKEIYTLENMDHVVTLEPENEQALNKMLTWIKKCE | soluble
MNEHHQPFEEIKLINANGAEQWSARQLGKLLGYSEYRHFIPVLTRAKEACENSGHTIDDHFEEILDMVKIGSNAKRALKDIVLSRYACYLVVQNGDPAKPVIAAGQTYFAIQTRRQELADDEAFKQLREDEKRLFLRNELKEHNKQLVEAAQQAGVATATDFAIFQNHGYQGLYGGLDQKAIHQRKGLKKNQKILDHMGSTELAANLFRATQTEEKLKRDGVNSKQQANTTHFDVGRKVRQTIQELGGTMPEELPTPQVSIKQLENSVKITEKK | soluble
MDIKNSPSSLNSPSSYNCSQSILPLEHGSIYIPSSYVDSHHEYPAMTFYSPAVMNYSIPSNVTNLEGGPGRQTTSPNVLWPTPGHLSPLVVHRQLSHLYAEPQKSPWCEARSLEHTLPVNRETLKRKVSGNRCASPVTGPGSKRDAHFCAVCSDYASGYHYGVWSCEGCKAFFKRSIQGHNDYICPATNQCTIDKNRRKSCQACRLRKCYEVGMVKCGSRRERCGYRLVRRQRSADEQLHCAGKAKRSGGHAPRVRELLLDALSPEQLVLTLLEAEPPHVLISRPSAPFTEASMMMSLTKLADKELVHMISWAKKIPGFVELSLFDQVRLLESCWMEVLMMGLMWRSIDHPGKLIFAPDLVLDRDEGKCVEGILEIFDMLLATTSRFRELKLQHKEYLCVKAMILLNSSMYPLVTATQDADSSRKLAHLLNAVTDALVWVIAKSGISSQQQSMRLANLLMLLSHVRHASNKGMEHLLNMKCKNVVPVYDLLLEMLNAHVLRGCKSSITGSECSPAEDSKSKEGSQNPQSQ | soluble
